Experiment [1] concerns the target T1, unglycosylated and unsulfated synthetic peptide 19.ek (human, biotinylated; no sulfate, no glycan).
T1 construct: also called synthetic peptide lacking sulfated tyrosine
As to the kind of experiment: SPR (BIAcore), biotinylated peptide on streptavidin chip. The method, then:
Surface plasmon resonance binding analysis. A BIAcore 2000 instrument (BIAcore AB, Uppsala, Sweden) was used to analyze the interactions between the identified antibodies and biotinylated PSGL-1 19.ek.Fc or derived peptides. Binding experiments were performed at 25° C. using streptavidin-coated sensor chips (BIAcore) and HBS-P buffer (20 mM HEPES [pH 7.4], 150 mM NaCl and 0.005% polysorbate 20 v/v) adjusted to 1 mM for both CaCl₂ and MgCl₂. The streptavidin on the sensor surfaces were conditioned with three one-minute injections of a solution containing 1 M NaCl and 25 mM NaOH. The chips were regenerated with 5 μL of 0.1% TFA and equilibrated with running buffer. […] Binding kinetics were analyzed using BIAevaluation software (V2.1; Pharmacia Biosensor, Uppsala, Sweden). The response representing the mass of bound monoclonal antibodies was measured in resonance units (RU). […] Binding kinetics of human anti-PSGL-1 monoclonal antibodies to the immobilized PSGL-1 19.ek.Fc was determined under partial mass transport limitations by triplicate injections at a concentration range (0-100 nM) onto the immobilized biotinlylated PSGL-1 19.ek.Fc peptide at a flow rate of 30 μL/min, following injection for two minutes. Dissociation was monitored for ten minutes at the same flow rate. […]
In general terms: Surface plasmon resonance follows binding to a sensor surface in real time, without labels.

Experiment [2] has as its target T2, fully sulfated and glycosylated human PSGL-1 19.ek.Fc fusion protein (human, sulfated tyrosines (y in QATEyEyLDyDFL, corresponding to Tyr46, Tyr48 and Tyr51 of mature human PSGL-1); O-linked glycan; biotinylated in the assays).
T2 construct: also called PSGL-19.ek.Fc; PSGL-19.ed.Fc; not shown: human IgG1 Fc as described in Somers et al., Cell 103:467-479 (2000)
T2 chain: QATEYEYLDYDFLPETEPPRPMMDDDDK
Kind of experiment: SPR (BIAcore 2000), biotinylated PSGL-1 19.ek.Fc on streptavidin chip, antibody 0-100 nM. The method, then:
Surface plasmon resonance binding analysis. A BIAcore 2000 instrument (BIAcore AB, Uppsala, Sweden) was used to analyze the interactions between the identified antibodies and biotinylated PSGL-1 19.ek.Fc or derived peptides. Binding experiments were performed at 25° C. using streptavidin-coated sensor chips (BIAcore) and HBS-P buffer (20 mM HEPES [pH 7.4], 150 mM NaCl and 0.005% polysorbate 20 v/v) adjusted to 1 mM for both CaCl₂ and MgCl₂. The streptavidin on the sensor surfaces were conditioned with three one-minute injections of a solution containing 1 M NaCl and 25 mM NaOH. The chips were regenerated with 5 μL of 0.1% TFA and equilibrated with running buffer. […] Binding kinetics were analyzed using BIAevaluation software (V2.1; Pharmacia Biosensor, Uppsala, Sweden). The response representing the mass of bound monoclonal antibodies was measured in resonance units (RU). […] Binding kinetics of human anti-PSGL-1 monoclonal antibodies to the immobilized PSGL-1 19.ek.Fc was determined under partial mass transport limitations by triplicate injections at a concentration range (0-100 nM) onto the immobilized biotinlylated PSGL-1 19.ek.Fc peptide at a flow rate of 30 μL/min, following injection for two minutes. Dissociation was monitored for ten minutes at the same flow rate.

For experiment [3], the target named is T3, Phospho-BTK peptide (SMILES …).
T3 peptide: Biotin-[βAla]KKVVAL[pY]D[pY]MPMN-OH
Kind of experiment: dot blot on P81 phosphocellulose filters. An excerpt:
(§1) PSG2 is Specific for Sulfotyrosine as Compared to Phosphotyrosine. To compare binding to various peptides, a GPG-290 polypeptide (GPG) or a BTK peptide (BTK) (Tufts peptide) (biotin-βAla-[…]-[OH]) (SEQ ID NO:339), one microliter of 1:3 dilutions of compound was spotted onto P81 phosphocellulose filters (Upstate Cell Signaling #20-134). GPG-290 is a dimeric molecule consisting of the N-terminal 290 amino acids of GPIbα fused to a mutated Fc domain of human IgG1. It contains 3 sulfated tyrosine residues at positions 276, 278, and 279. The BTK peptide is biotin-βAla-[…]-[OH] (SEQ ID NO:339). Phospho-BTK contains 2 phosphorylated tyrosine residues. The starting dilution for GPG-290 was 250 ng/μl and for the BTK peptide the starting dilution was 3 μg/μl. Western Blot analysis was performed as follows: filters were blocked for 1 hour in blocking buffer (TBS+0.1% Tween-20 (TBS/T) and 5% nonfat dry milk). Filters were washed in TBS/T and incubated overnight in primary antibody diluted in TBS/T+0.5% BSA. Washed filters were incubated for 1 hour with secondary antibody diluted in blocking buffer (HRP-mouse anti-human IgG4 to detect PSG-2 and HRP-goat anti-mouse IgG+A+M to detect anti-phospho-tyrosine antibody). HRP signal was detected with the SuperSignal Chemiluminescent Substrate (Pierce) and the filters were exposed to X-ray film.

For experiment [4], the target named is T4, BTK peptide (non-phosphorylated).
T4 construct: also called Tufts peptide
T4 peptide: {Biotin-βAla}-AKKVVALYDYMPMN-OH
As to the kind of experiment: dot blot on P81 phosphocellulose filters.
Text: as §1

[ ]: non-standard residue; d: D form. The star is where a group is joined. Biotin = O=C1N[C@H]2[C@H](CS[C@H]2CCCCC(=O)*)N1; pY = N[C@@H](Cc1ccc(OP(=O)(O)O)cc1)C(=O)O; βAla = NCCC(=O)O

B1: PSG2 full-length bivalent antibody (human IgG4, lambda) (antibody, V domains shown)
VH: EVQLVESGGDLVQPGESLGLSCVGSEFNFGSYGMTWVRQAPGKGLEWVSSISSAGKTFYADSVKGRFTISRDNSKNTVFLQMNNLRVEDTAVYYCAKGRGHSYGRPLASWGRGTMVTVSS
VL: QAVLTQPSSLSASPGASASLTCTLRSGIDVGPHRIYWFQQKPGSTPQYLLRYKSDSDTQQGSGVPSRFSGSKDASANAGILLISGLQSEDEADYYCMIWHSSAWVFGGGTKLTVLG
notes: also called P5G2; human monoclonal antibody PSG2
With B1, the binding result in experiment [1] is listed as “no binding (tested: 100 nM)”; in experiment [3], “no binding”; in experiment [4], “no binding”. Moreover, the Ka in experiment [2] was about 3.2e+10 M⁻¹.

B2: PSG1 full-length bivalent antibody (human IgG4, lambda) (antibody, V domains shown)
VH: QVQLQESGAEVKKPGASVKVSCKSSGYTFTAYYMHWLRQAPGQGLEWMGWINPNSGGTNYAQKFQGRVTLTRDTSISTAYMELNSLTSDDTAMYYCARGGPRVSSRPGIGYSDSWGKGTLVTVSS
VL: QTVVLQEPSLTVSPGGTVTLTCASRIGAVTSGHYANWFQQKPGQAPRALIYRTNNKQSWTPARFSGSLLGDRAALTLSGAQPEDEADYYCLLYYGGSWVFGGGTKLTVLG
notes: also called human monoclonal antibody PSG1
For B2, the binding result in experiment [1] is “no binding (tested: 100 nM)”. The molecule further showed a Ka in experiment [2] of about 7.5e+09 M⁻¹.

Values taken from patent US20070154472A1 (published 2007).
